Patent US20180057604A1 (Genentech, published 2018)
Positions count from the first letter of the chain named. Numbers in names are those of the source.

B1: 6289 (antibody, V domains shown)
VH: QLQLQESGPGLVKPSETLSLTCTVSGGSISSSSYYWGWIRQPPGKGLEWIGSIYRSGSTYYNPSLRSRVTISVDTSKNQFSLKLSSVTAADTAVYYCVRVGHGISYFDLWGRGTLVTVSS
VL: EIVLTQSPATLSLSPGERATLSCRASQSVSSYLAWYQQKPGQAPRLLIYDASNRATGIPARFSGSGSGTDFTLTISSLEPEDFAVYYCQQSLTWPPRTFGGGTKVEIK
notes: anti-BACE1 IgG
B2: 6297 (antibody, V domains shown)
VH: B1 VH with S28P, S52N, R55Y, S67G, V98A, V100L, I104Y, S105N
VL: B1 VL with Y36F, S91V, L92Y, T93V
notes: anti-BACE1 IgG
B3: 6293 (antibody, V domains shown)
VH: B1 VH with S52M, R55Y, Y60W, V98A, I104V
VL: B1 VL with N53K, S91V, L92Y
notes: anti-BACE1 IgG
B4: 6290 (antibody, V domains shown)
VH: B1 VH with S52M, R55Y, Y60W, R66K, V98A, H102L, I104V
VL: B1 VL with N53K, S91V, L92Y
notes: anti-BACE1 IgG
B5: 6296 (antibody, V domains shown)
VH: B1 VH with S52N, R55Y, S67G, V98A, V100L, I104Y, S105N
VL: B1 VL with Y36F, S91V, L92Y, T93V
notes: anti-BACE1 IgG
B6: 6299 (antibody, V domains shown)
VH: QVQLVQSGAEVKKPGSSVKVSCKASGGTLSGYAISWVRQAPGQGLEWMGNIIPGFGTANYAQKSQGRVTITADESTSTAYMELSSLRSEDTAVYYCARSGGTRYGMLDVWGQGTMVTVSS
VL: EIVMTQSPATLSVSPGERATLSCRASQSVGSNLAWYQQKPGQAPRLLIYGASTRATGIPARFSGSGSGTEFTLTISSLQSEDFAVYYCQQSYLWPPRTFGGGTKVEIK
notes: anti-BACE1 IgG
B7: 1B12 (antibody, V domains shown)
VH: EVKLVESGGGLVQPGGFLKLSCATSGFTFSDYYMYWVRQTPEKRLEWVASISNGGDNTYYPDTVKGRFTISRDNAKNTLYLQMSRLKSEDTAMYYCARQGALYDGYYRGAMDYWGQGTSVTVSS
VL: QIVLTQSPAIMSASLGGRVTMTCTTSSSVPSSYFHWYQQKPGSSPKLWIYSTSNLASGVPARFSGSGSGTSYSLTISSMEAEDAATYYCHQYHRSPFTFGSGTKLEIK
notes: Mouse hybridoma antibody; also called clone 1B12
B8: 16G4 (antibody, V domains shown)
VH: QVQLQQPGAELVKPGASVKLSCKASGYTFTSYWMHWVKQRPGQGLEWIGEINPSNGRTNYNETFKSKATLTVDKSSSTAYMQLSSLTSEDSAVYYCARGTRAYHYWGQGTSVTVSS
VL: DIQMTQSPASLSVSVGETVTITCRASDNIYSNLAWYQQKQGKSPQLLVYAVTNLADGVPSRFSGSGSGTQYSLKINSLQSEDFGSYYCQHFWGTPLTFGAGTKLELK
notes: Mouse hybridoma antibody; also called clone 16G4
B9: 7G7 (antibody, V domains shown)
VH: QVQLQQPGSELVRPGASVKLSCKASGYTFTSYWMHWVKQRHGQGLEWIGNIYPGSGSTKYDERFKSKGTLTVDTSSSTAYMHLSSLTSEDSAVYYCTRGGYDSRAWFAYWGQGTLVTVSA
VL: DIVLTQSPASLAVSLGQRATISCRARQSVSTSSYSFMHWYRQKAGQPPKLLIKYASIQESGVPARFSGSGSGTDFTLNILPVEEEDTATYYCQHTWEIPFTFGSGTKLEIK
notes: Mouse hybridoma antibody; also called clone 7G7
B10: 8A2 (antibody, V domains shown)
VH: QVQLQQSGPELVRPGVSVKISCKGSGYTFTDYGMHWVKQSHAKSLEWIGVISPYSGRTNYNQNFKGKATMTVDKSSSTAYLELARLTSEDSAIYYCARGLSGNYVVDYWGQGTSVTVSS
VL: DIVLTQSPASLAVSLGQRATISCRASESVDSYGNSFMHWYQQKPGQPPKLLIYRASNLESGIPARFSGSGSRTDFTLTINPVEADDVATYYCQQSNEGPPTFGGGTKLEIK
notes: Mouse hybridoma antibody; also called clone 8A2
B11: 10D11 (antibody, V domains shown)
VH: QVQLQQSGPELVRPGVAVKISCKGSGYKFIDYGMHWVKQSHTKSLQWIGVISPYSGKTNYSQKFKGKATMTVDKSSSTAYMELARLTSEDSAIYYCARGLSGNFVMDFWGQGTSVTVSS
VL: B10 VL with N34P, Q94H, G98D, K107R
notes: Mouse hybridoma antibody; also called clone 10D11
B12: 13D4 (antibody, V domains shown)
VH: QVQLQQSGAELMKPGASVKISCKAAGYTFSNYWIEWVKQRPGHGLEWIGEILPGSGSTKYNEKFKGKATFTADTSSNTAYMQLSSLTSEDSAVYYCARRGGYGYDGEFAYWGQGTLVTVSA
VL: DIQMTQTTSSLSASLGDRVTINCRAGQDITNYLNWFQQKPDGTVKLLIYYTSRLHSGVPSRFSGSGSGTDYSLTITNLEQEDIATYFCQQANTLPYTFGGGTKLEIK
notes: Mouse hybridoma antibody; also called clone 13D4
B13: H90A (antibody, V domains shown)
VH: EVQLVQSGAEVKKPGASVKVSCKASGYTFTSYWMHWVRQAPGQRLEWIGEINPTNGRTNYIEKFKSRATLTVDKSASTAYMELSSLRSEDTAVYYCARGTRAYHYWGQGTMVTVSS
VL: DIQMTQSPSSLSASVGDRVTITCRASDNLYSNLAWYQQKPGKSPKLLVYDATNLADGVPSRFSGSGSGTDYTLTISSLQPEDFATYYCQAFWGTPLTFGQGTKVEIK
notes: also called 15G11.v5 H90A (CDR-L3) IgG
B14: T94A (antibody, V domains shown)
VH: B13 VH
VL: B13 VL with A90H, T94A
notes: also called 15G11.v5 T94A (CDR-L3) IgG
B15: T97A (antibody, V domains shown)
VH: B13 VH
VL: B13 VL with A90H, T97A
notes: also called 15G11.v5 T97A (CDR-L3) IgG
B16: L96A (antibody, V domains shown)
VH: B13 VH
VL: B13 VL with A90H, L96A
notes: also called 15G11.v5 L96A (CDR-L3) IgG
B17: H101A (antibody, V domains shown)
VH: B13 VH with H104A
VL: B13 VL with A90H
notes: also called 15G11.v5 H101A (CDR-H3) IgG; copies: 2 + 2

Target: T1, BACE1 in primary mouse cortical neurons (mouse, UniProt P56818 46-501)
Assay: cell-based or functional assay

T1 sequence (P56818 46-501): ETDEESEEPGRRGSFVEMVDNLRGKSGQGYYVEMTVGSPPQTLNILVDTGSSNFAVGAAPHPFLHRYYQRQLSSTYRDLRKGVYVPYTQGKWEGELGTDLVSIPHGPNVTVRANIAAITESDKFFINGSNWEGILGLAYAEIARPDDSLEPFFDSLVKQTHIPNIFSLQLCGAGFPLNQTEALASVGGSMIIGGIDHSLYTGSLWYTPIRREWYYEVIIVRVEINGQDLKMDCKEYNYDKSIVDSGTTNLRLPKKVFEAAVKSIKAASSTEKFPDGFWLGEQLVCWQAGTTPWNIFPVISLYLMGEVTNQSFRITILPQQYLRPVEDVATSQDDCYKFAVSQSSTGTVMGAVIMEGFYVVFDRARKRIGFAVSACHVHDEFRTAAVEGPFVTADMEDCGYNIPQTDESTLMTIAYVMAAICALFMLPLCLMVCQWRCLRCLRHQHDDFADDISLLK

Question: B1 was tested. Which “IC50, Abeta x-40 in mouse cortical neurons” value did it give?
Answer: 5.21 nM

Question: What about the “maximal % inhibition of Abeta x-40” value of the same binder?
Answer: 74%

Question: How did the “IC50, Abeta x-40 in mouse cortical neurons” value turn out when B2 was run?
Answer: 3.89 nM

Question: And the “maximal % inhibition of Abeta x-40” value?
Answer: 63%

Question: Which “IC50, Abeta x-40 in mouse cortical neurons” value does the source give for B3 here?
Answer: 0.88 nM

Question: And the “maximal % inhibition of Abeta x-40” value?
Answer: 75%

Question: How did the “IC50, Abeta x-40 in mouse cortical neurons” value turn out when B4 was run?
Answer: 3.17 nM

Question: And the “maximal % inhibition of Abeta x-40” value?
Answer: 63%

Question: With B5 as the binder, how does the “IC50, Abeta x-40 in mouse cortical neurons” value read?
Answer: 7.92 nM

Question: And the “maximal % inhibition of Abeta x-40” value?
Answer: 62%

Target: T1, BACE1 in primary mouse cortical neurons
Assay: cell-based or functional assay
Remark: another data set of the same source

Question: B6 was tested. Which “IC50, Abeta x-40 in mouse cortical neurons” value did it give?
Answer: 10.4 nM

Question: And the “maximal % inhibition of Abeta x-40” value?
Answer: 70%

Target: T2, human BACE1 ECD
T2 construct: analyte of the Octet assay (200 nM) and enzyme of the first short substrate assay; also called human BACE1 extracellular domain
Assay: Octet, pH 7.5;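 note: antibodies captured on anti-human capture sensor tips, dissociation monitored in PBS with BSA, Kd obtained from kinetic fit to a one-to-one binding model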
Protocol: (§1) Anti-BACE1 antibodies were loaded onto anti-human capture (AHC) sensors (tips) followed by 60 seconds baseline in assay buffer. […] Tips were transferred to assay buffer for 5 minutes, 30 minutes, or 120 minutes depending on the off-rate, for off-rate measurement. Assay buffer was either PBS+0.1% BSA, pH 7.5; or PBS+0.1% BSA, pH 5.0. Kinetics were analyzed using a 1:1 binding model.

T2 sequence (single chain, as listed by the source limits assumed): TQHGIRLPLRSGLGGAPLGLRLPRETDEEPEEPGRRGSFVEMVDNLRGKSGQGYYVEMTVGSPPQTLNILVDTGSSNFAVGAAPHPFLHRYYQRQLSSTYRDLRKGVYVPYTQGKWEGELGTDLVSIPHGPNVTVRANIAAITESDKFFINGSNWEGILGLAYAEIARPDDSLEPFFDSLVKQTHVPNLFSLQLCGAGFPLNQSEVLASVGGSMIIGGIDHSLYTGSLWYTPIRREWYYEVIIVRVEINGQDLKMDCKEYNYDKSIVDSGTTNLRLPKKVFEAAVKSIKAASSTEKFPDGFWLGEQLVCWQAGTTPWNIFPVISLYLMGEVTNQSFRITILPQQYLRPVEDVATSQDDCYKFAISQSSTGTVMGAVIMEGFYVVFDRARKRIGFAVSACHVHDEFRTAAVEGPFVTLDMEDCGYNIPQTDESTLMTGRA

Question: Which Kd does the source give for B6 here?
Answer: < 0.41 nM

Question: Which Kd does the source give for B1 here?
Answer: 0.37 nM

Question: With B2 as the binder, how does the Kd read?
Answer: 0.4 nM

Question: How did the Kd turn out when B3 was run?
Answer: < 0.28 nM

Question: Which Kd does the source give for B4 here?
Answer: < 0.26 nM

Question: B5 was tested. Which Kd did it give?
Answer: 0.28 nM

Target: T3, murine BACE1 ECD
T3 construct: analyte of the Octet assay (200 nM) and enzyme of the first short substrate assay
Assay: Octet, pH 7.5;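 note: antibodies captured on anti-human capture sensor tips, dissociation monitored in PBS with BSA, Kd obtained from kinetic fit to a one-to-one binding model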
Protocol: as §1

T3 sequence (single chain, as listed by the source limits assumed): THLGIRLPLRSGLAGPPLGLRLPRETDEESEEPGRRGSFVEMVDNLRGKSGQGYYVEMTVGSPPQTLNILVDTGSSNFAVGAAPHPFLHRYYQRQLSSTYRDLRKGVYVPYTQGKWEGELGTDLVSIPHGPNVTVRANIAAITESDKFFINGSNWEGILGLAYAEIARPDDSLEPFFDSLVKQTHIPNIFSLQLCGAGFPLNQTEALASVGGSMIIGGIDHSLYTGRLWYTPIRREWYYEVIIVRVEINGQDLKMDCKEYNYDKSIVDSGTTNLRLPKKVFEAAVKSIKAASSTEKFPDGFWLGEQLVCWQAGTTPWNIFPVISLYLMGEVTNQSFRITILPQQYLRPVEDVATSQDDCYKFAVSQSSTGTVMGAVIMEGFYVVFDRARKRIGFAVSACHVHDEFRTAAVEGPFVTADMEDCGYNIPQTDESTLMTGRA

Question: How did the Kd turn out when B6 was run?
Answer: < 0.41 nM

Question: How did the Kd turn out when B1 was run?
Answer: 0.28 nM

Question: B2 was tested. Which Kd did it give?
Answer: < 0.26 nM

Question: Which Kd does the source give for B3 here?
Answer: < 0.28 nM

Question: B4 was tested. Which Kd did it give?
Answer: < 0.27 nM

Question: How did the Kd turn out when B5 was run?
Answer: < 0.24 nM

Target: T4, human BACE1 (R&D Systems) (human, UniProt P56817)
T4 construct: recombinant, commercial (R&D Systems)
Assay: SPR (Biacore)
Protocol: Binding affinities of certain anti-BACE1 IgGs were measured by surface plasmon resonance (SRP) using a BIAcore™-T100 instrument. […] Association rates (kon) and dissociation rates (koff) were calculated using a simple one-to-one Langmuir binding model (BIAcore Evaluation Software version 3.2). The equilibrium dissociation constant (KD) was calculated as the ratio koff/kon.

T4 sequence (P56817 22-457 limits assumed): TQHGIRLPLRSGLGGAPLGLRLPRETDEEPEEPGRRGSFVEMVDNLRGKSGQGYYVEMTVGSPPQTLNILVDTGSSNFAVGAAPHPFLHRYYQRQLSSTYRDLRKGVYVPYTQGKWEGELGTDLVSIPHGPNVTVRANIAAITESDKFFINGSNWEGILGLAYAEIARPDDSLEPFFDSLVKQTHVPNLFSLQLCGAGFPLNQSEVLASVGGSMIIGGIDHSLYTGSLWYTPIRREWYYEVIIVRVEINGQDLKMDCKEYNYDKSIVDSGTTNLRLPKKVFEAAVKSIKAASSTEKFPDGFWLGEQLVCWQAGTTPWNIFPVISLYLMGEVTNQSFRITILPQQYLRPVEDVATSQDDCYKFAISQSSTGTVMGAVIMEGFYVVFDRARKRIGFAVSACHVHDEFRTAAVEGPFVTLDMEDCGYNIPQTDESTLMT

Question: B6 was tested. Which Kd did it give?
Answer: 5.82 nM

Question: How did the Kd turn out when B1 was run?
Answer: 7.37 nM

Question: For B2, which Kd is on record?
Answer: 3.87 nM

Question: Which Kd does the source give for B3 here?
Answer: 8.26 nM

Question: For B4, which Kd is on record?
Answer: 3.19 nM

Question: With B5 as the binder, how does the Kd read?
Answer: 3.29 nM

Target: T5, cyno TfR extracellular domain (analogous construct to human TfR ecd) (cynomolgus monkey, UniProt Q5RDH6 87-760 (Pongo abelii entry))
T5 construct: also called cynoTfR ecd
T5 chain: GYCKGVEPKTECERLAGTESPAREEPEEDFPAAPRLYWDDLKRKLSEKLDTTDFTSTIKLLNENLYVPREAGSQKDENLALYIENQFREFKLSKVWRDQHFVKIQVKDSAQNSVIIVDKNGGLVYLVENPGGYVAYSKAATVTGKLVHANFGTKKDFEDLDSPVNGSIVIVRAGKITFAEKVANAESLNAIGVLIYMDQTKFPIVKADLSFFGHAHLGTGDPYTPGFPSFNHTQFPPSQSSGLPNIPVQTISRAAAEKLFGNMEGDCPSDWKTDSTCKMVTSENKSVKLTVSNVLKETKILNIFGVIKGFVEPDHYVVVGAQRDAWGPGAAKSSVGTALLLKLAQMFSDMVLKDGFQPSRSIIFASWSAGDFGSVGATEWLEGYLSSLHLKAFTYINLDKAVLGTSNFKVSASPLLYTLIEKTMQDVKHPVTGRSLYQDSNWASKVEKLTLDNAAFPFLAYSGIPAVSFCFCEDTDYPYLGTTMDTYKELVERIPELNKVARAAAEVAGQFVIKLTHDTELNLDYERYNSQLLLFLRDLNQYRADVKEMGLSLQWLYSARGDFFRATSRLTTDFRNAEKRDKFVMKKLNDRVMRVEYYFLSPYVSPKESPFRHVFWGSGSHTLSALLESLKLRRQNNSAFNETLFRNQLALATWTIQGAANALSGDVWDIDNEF
Assay: SPR, IgG
Protocol: (§2) Antibody affinities were measured using surface plasmon resonance (“SPR”) (Biacore™, GE Healthcare). Anti-His antibody (Qiagen) was coupled onto four different flow cells of a BIACORE™ CM5 sensor chip (Biacore, Inc., Piscataway, N.J.) at between 6000 and 8000 RU. Immobilization was achieved by random coupling through amino groups using a protocol provided by the manufacturer. 10×HBS-P (Biacore, Inc., Piscataway, N.J.) was diluted in water and served as the dilution and running buffer. Purified human or cyno TfR was captured, followed by a 3-fold dilution series of IgG or Fab that was injected at a flow rate of 30 ml/min using the single cycle kinetics method. Affinity constants were determined using a simple 1:1 Langmuir binding model or using a steady state model when kₒₙ or koff was beyond the detection limit. The equilibrium dissociation constant (KD) was calculated as the ratio of association rate constant (kₒₙ) and dissociation rate constant (koff).

Question: With B7 as the binder, how does the Kd read?
Answer: 43.4 nM

Question: For B8, which Kd is on record?
Answer: 22.4 nM

Question: With B9 as the binder, how does the Kd read?
Answer: 262 nM

Question: How did the Kd turn out when B10 was run?
Answer: 0.904 nM

Question: With B11 as the binder, how does the Kd read?
Answer: 89.9 nM

Question: For B12, which Kd is on record?
Answer: 8.47 nM

Target: T6, human TfR extracellular domain with N-terminal His tag (human, UniProt P02786 89-760)
T6 construct: Biotinylated in some assays; also called huTfR; HuTfR
Assay: SPR, IgG
Protocol: as §2

T6 sequence (P02786 89-760 G142S): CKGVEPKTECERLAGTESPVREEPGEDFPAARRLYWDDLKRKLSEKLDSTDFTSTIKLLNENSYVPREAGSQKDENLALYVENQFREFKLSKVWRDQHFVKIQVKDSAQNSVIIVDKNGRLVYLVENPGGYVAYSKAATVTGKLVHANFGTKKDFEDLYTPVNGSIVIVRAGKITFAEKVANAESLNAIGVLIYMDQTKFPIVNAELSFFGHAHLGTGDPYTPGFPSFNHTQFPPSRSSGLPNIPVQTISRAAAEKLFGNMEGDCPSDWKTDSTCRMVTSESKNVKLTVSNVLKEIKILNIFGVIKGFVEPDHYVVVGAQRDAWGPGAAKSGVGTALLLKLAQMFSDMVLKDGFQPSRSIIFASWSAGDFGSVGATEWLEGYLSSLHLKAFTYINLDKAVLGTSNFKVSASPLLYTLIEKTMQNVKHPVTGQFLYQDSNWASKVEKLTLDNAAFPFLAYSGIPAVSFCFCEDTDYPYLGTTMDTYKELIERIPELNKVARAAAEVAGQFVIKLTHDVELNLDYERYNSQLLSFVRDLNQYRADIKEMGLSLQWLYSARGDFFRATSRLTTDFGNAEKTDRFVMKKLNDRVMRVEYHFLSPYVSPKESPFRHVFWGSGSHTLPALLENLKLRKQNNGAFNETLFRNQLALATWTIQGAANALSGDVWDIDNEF

Question: How did the Kd turn out when B7 was run?
Answer: 2.03 nM

Question: Which Kd does the source give for B8 here?
Answer: 3.4 nM

Question: For B9, which Kd is on record?
Answer: 45.7 nM

Question: Which Kd does the source give for B10 here?
Answer: 0.179 nM

Question: For B11, which Kd is on record?
Answer: 2.08 nM

Question: Which Kd does the source give for B12 here?
Answer: 9.5 nM

Target: T5, cyno TfR extracellular domain …
Assay: ELISA, IgG
Protocol: (§3) Affinity variants were generated by making individual alanine substitutions in CDR-L3 or CDR-H3 using standard techniques. These variants were screened as IgG by ELISA and SPR to identify positions important for binding to human and cyno TfR; the monovalent affinity of selected variants as Fab was also determined. […] Plates were washed with PBS/0.05% Tween 20 and blocked using Superblock blocking buffer in PBS (Thermo Scientific, Hudson, N.H.). Supernatants containing expressed IgG were diluted serially 1:5 and added to the plate for 1 h. […] Plates were washed with PBS/0.05% Tween 20 and 1:1000 diluted HRP-Goat-anti kappa (Southern Biotech) was added the plate and incubated for 1 h at room temperature. Plates were washed with PBS/0.05% Tween 20 and detected using TMB substrate (BioFX Laboratories, Owings Mills).

Question: With B13 as the binder, how does the EC50 read?
Answer: 0.024 µg/mL

Question: How did the EC50 turn out when B14 was run?
Answer: 0.0293 µg/mL

Question: For B15, which EC50 is on record?
Answer: 0.0157 µg/mL

Question: With B16 as the binder, how does the EC50 read?
Answer: 0.018 µg/mL

Question: Which EC50 does the source give for B17 here?
Answer: 0.0216 µg/mL

Target: T6, human TfR extracellular domain with …
Assay: ELISA, IgG
Protocol: as §3

Question: Which EC50 does the source give for B13 here?
Answer: 0.013 µg/mL

Question: Which EC50 does the source give for B14 here?
Answer: 0.0168 µg/mL

Question: How did the EC50 turn out when B15 was run?
Answer: 0.0134 µg/mL

Question: With B16 as the binder, how does the EC50 read?
Answer: 0.0099 µg/mL

Question: With B17 as the binder, how does the EC50 read?
Answer: 0.0142 µg/mL

Target: T2, human BACE1 ECD
Assay: Octet, pH 5.0;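 note: antibodies captured on anti-human capture sensor tips, dissociation monitored in PBS with BSA buffer, kinetics fitted with a one-to-one binding model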
Protocol: as §1

Question: For B6, which Kd is on record?
Answer: < 0.28 nM

Question: How did the Kd turn out when B1 was run?
Answer: 0.39 nM

Question: For B2, which Kd is on record?
Answer: 0.28 nM

Question: For B3, which Kd is on record?
Answer: < 0.28 nM

Question: For B4, which Kd is on record?
Answer: < 0.23 nM

Question: Which Kd does the source give for B5 here?
Answer: 0.2 nM

Target: T3, murine BACE1 ECD
Assay: Octet, pH 5.0;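 note: antibodies captured on anti-human capture sensor tips, dissociation monitored in PBS with BSA buffer, kinetics fitted with a one-to-one binding model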
Protocol: as §1

Question: B6 was tested. Which Kd did it give?
Answer: < 0.46 nM

Question: How did the Kd turn out when B1 was run?
Answer: 0.38 nM

Question: B2 was tested. Which Kd did it give?
Answer: 0.32 nM

Question: With B3 as the binder, how does the Kd read?
Answer: < 0.28 nM

Question: Which Kd does the source give for B4 here?
Answer: < 0.27 nM

Question: For B5, which Kd is on record?
Answer: < 0.24 nM
